Assay [1] concerns the target human IgG (human). Put plainly: depletion of 10 mg/ml IgG solution, 1 mg particles per 50 µL, single half-hour incubation.
Assay [2] addresses human IgG (human). Put plainly: depletion of IgG from 50 µL human serum with 1 mg nanoparticles, 60 min with stirring at room temperature.

Some results are limits rather than exact numbers.

The substance “protein G' (protein G devoid of the albumin recognition region), covalently bound to silica mesoporous nanoparticles (from UniProt P19909 314-497)” had a percent of IgG removed in the assay with human IgG (human) [1] above 90%. In the assay with human IgG (human) [2], this substance yielded an IgG elimination capacity above 90%.

(Values after patent publication EP4563528A1.)
